Positions count from the first letter of the chain named. In names and notes the source's numbering stands.

By Kd is commonly meant a measure of binding affinity in units of concentration. The low end stands for higher affinity, the high end for lower affinity.

B1: IL6R-BP256/IL6R-L (antibody, human IgG1, kappa)
heavy: QVQLQESGPGLVKPSETLSLTCAVSGHSISHDHAWSWVRQPPGEGLEWIGFISYSGITNYNPSLQGRVTISRDNSKNTLYLQMNSLRAEDTAVYYCARSLARTTAMDYWGEGTLVTVSSASTKGPSVFPLAPSSKSTSGGTAALGCLVKDYFPEPVTVSWNSGALTSGVHTFPAVLQSSGLYSLSSVVTVPSSSLGTQTYICNVNHKPSNTKVDKKVEPKSCDKTHTCPPCPAPDLLGDDDVFLFPPKPKDTLMISRTPEVTCVVVDVSDEDGEVKFNWYVDGVEVHNAKTKPREEQYNSTYRVVSVLTVLHQDWLNGKEYKCKVSNKALPRPIEKTISKAKGQPREPQVYTLPPSRDELTKNQVSLTCLVKGFYPSDIAVEWESNGQPENNYKTTPPVLDSDGSFFLYSKLTVDKSRWQQGNVFSCSVMHEALHNHYTQESLSLSP
light: not shown
notes: Homodimerized antibody; IL6R-BP256 is IL6R-BP208 with S239D
B2: IL6R-AP002/IL6R-BP256/IL6R-L (antibody, human IgG1, kappa)
heavy 1: B1 heavy with D241S, D358K, H437R, E441K
heavy 2: B1 heavy
light: not shown
notes: Heterodimerized antibody with S239D in one H chain only; IL6R-AP002 is IL6R-A5 (IL6R-G1d with D356K and H435R) with E233D, G237D, P238D, H268D, P271G and A330R
B3: IL6R-BP257/IL6R-L (antibody, human IgG1, kappa)
heavy: B1 heavy with D241E
light: not shown
notes: Homodimerized antibody; IL6R-BP257 is IL6R-BP208 with S239E
B4: IL6R-AP002/IL6R-BP257/IL6R-L (antibody, human IgG1, kappa)
heavy 1: B1 heavy with D241S, D358K, H437R, E441K
heavy 2: B1 heavy with D241E
light: not shown
notes: Heterodimerized antibody with S239E in one H chain only
B5: J142-z72/L180-k (antibody, human IgG4 S228P, kappa)
heavy: QVQLVQSGSELKKPGASVKVSCKASGYTFTDNNMDWVRQAPGQGLEWMGDINTRSGGSIYNEEFQDRVTMTIDKSTGTAYMELSSLRSEDTAVYYCARRRSYGYYHDEWGEGTLVTVSSASTKGPSVFPLAPCSRSTSESTAALGCLVKDYFPEPVTVSWNSGALTSGVHTFPAVLQSSGLYSLSSVVTVPSSSLGTKTYTCNVDHKPSNTKVDKRVESKYGPPCPPCPAPEFLGGPSVFLFPPKPKDTLMISRTPEVTCVVVDVSQEDPEVQFNWYVDGVEVHNAKTKPREEQFNSTYRVVSVLTVLHQDWLNGKEYKCKVSNKGLPSSIEKTISKAKGQPREPQVYTLPPSQEEMTKNQVSLTCLVKGFYPSDIAVEWESNGQPENNYKTTPPVLDSDGSFFLYSRLTVDKSRWQEGNVFSCSVMHEALHNRFTQKSLSLSP
light: DIQMTQSPSSLSASVGDRVTITCKASRNIERNLAWYQQKPGQAPELLIYSASRKESGVPDRFSGSRYGTDFTLTISSLQPEDLATYYCQQYYSPPLTFGGGTKVEIKRTVAAPSVFIFPPSDEQLKSGTASVVCLLNNFYPREAKVQWKVDNALQSGNSQESVTEQDSKDSTYSLSSTLTLSKADYEKHKVYACEVTHQGLSSPVTKSFNRGEC
notes: also called homomeric antibody against FX
B6: J300-z107/L210-k (antibody, human IgG4 S228P, kappa)
heavy: QVQLVQSGSELKKPGASVKVSCKASGYTFTDNNMDWVRQAPGQGLEWMGDINTRSGGSIYNEEFQDRVIMTVDKSTDTAYMELSSLRSEDTAVYHCARRKSYGYYLDEWGEGTLVTVSSASTKGPSVFPLAPCSRSTSESTAALGCLVKDYFPEPVTVSWNSGALTSGVHTFPAVLQSSGLYSLSSVVTVPSSSLGTQTYTCNVDHKPSNTKVDKRVESKYGPPCPPCPAPEFLGGPSVFLFPPKPKDTLMISRTPEVTCVVVDVSQEDPEVQFNWYVDGVEVHNAKTKPREEQYNSTYRVVSVLTVLHQDWLNGKEYKCKVSNKGLPSSIEKTISKAKGQPREPQVYTLPPSQEEMTKNQVSLTCLVKGFYPSDIAVEWESNGQPENNYKTTPPVLDSDGSFFLYSKLTVDKSRWQEGNVFSCSVMHEALHNRYTQESLSLSP
light: B5 light with L83I, Y92S
notes: z107 carries H435R; also called homomeric antibody against FX
B7: J142-z73/L180-k (antibody, human IgG4 S228P, kappa)
heavy: B5 heavy with K438E
light: B5 light
notes: as for B5

One assay deals with T1, FcgRIIb extracellular domain with C-terminal His tag (human, UniProt P31994 43-217).
T1 construct: extracellular domain; Expressed in FreeStyle293 cells; also called FcγRIIb; 2b; not shown: His tag at the C terminus
T1 sequence (looked up): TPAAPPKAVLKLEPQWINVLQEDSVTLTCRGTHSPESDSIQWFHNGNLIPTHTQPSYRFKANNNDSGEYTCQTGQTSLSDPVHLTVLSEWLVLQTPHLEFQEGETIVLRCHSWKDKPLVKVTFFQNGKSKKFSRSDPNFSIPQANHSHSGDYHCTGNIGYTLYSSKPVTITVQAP
As to the kind of experiment: SPR (Biacore); KD of the sample for FcgRIIaR divided by its KD for FcgRIIb (selectivity for FcgRIIb). The method, then: (§1) Analysis of interaction between obj ective antibody and the FcγR was carried out using Biacore T100 (GE Healthcare), Biacore T200, Biacore A100, and Biacore 4000. HBS-EP+ (GE Healthcare) was used as the running buffer, and the measurement temperature was set to 25° C. Chips produced by immobilizing the antigen peptide by the amine coupling method to a Series S sensor Chip CM5 (GE Healthcare), chips produced by allowing preliminarily biotinylated antigen peptides to interact with and immobilize onto a Series S Sensor Chip SA (certified) (GE Healthcare), chips produced by immobilizing Protein L (ACTIGEN, BioVision) to Series S Sencor Chip CM5 (GE Healthcare), or chips produced by immobilizing Protein A/G (Thermo Scientific) to Series S Sencor Chip CM5 (GE Healthcare) were used. Antibodies of interest were captured onto these chips, and allowed to interact to each FcγR diluted with running buffer. To regenerate and repeatedly use the chip, the antibodies captured onto the chip were washed off by reacting 10 mM glycine-HCl, pH 1.5.
As for B1, the “KD(IIaR)/KD(IIb)” value worked out at 8.4 ratio.

For B2, the “KD(IIaR)/KD(IIb)” value was found to be 34.3 ratio.

As for B3, the “KD(IIaR)/KD(IIb)” value stood at 3 ratio.

As for B4, the “KD(IIaR)/KD(IIb)” value was found to be 27.7 ratio.

For another assay, the target named is T1, FcgRIIb extracellular domain with …. The experiment in a line: SPR (Biacore), antibody captured on chip, soluble FcgR as analyte, kinetic 1:1 fit. The method, then: (§2) The variants were assessed for the binding activity to FcgR Ia, FcgR IIaR, FcgR IIaH, and FcgRIIb according to the method described in Reference Example 8.
as §1
(In general: In SPR one partner is held on a chip, and binding of the other changes the refractive index at the surface.)
In turn, B1 gave a Kd of 87 nM.

As for B2, the dissociation constant (Kd) came to 4.1 nM.

As to B3, the affinity, expressed as Kd, was 430 nM.

For B4, the dissociation constant Kd was found to be 4.7 nM.

The next assay has as its target T2, FcgRIIa type R extracellular domain with C-terminal His tag (human, UniProt P12318 34-217).
T2 construct: extracellular domain; also called FcgRIIaR; FcgRIIa R; not shown: His tag at the C terminus
T2 sequence (looked up): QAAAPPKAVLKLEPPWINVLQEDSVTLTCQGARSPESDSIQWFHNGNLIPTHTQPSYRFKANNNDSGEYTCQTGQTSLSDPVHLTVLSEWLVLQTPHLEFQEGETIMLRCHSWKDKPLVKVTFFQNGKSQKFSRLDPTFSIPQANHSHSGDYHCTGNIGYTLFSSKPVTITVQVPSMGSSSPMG
Described as above. The method, then: as §2, §1
On to B1, for which the dissociation constant (Kd) was determined as 730 nM.

In turn, B2 had a Kd of 140 nM.

B3 registered a Kd of 1300 nM.

The molecule B4 had a Kd of 130 nM.

The next assay addresses T3, FcgRIIa type H extracellular domain with C-terminal His tag (human, UniProt P12318 34-217).
T3 construct: extracellular domain; also called FcgRIIaH; FcgRIIa H; not shown: His tag at the C terminus
T3 sequence (looked up): T2 sequence (looked up) with R134H
Described as above. The method, then: as §2, §1
On to B2, for which the affinity, expressed as Kd, was 4200 nM.

B4 showed a Kd of 4900 nM.

In a further assay the target is T4, FcgRIa extracellular domain with C-terminal His tag (human, UniProt P12314 16-292).
T4 construct: extracellular domain; Expressed in FreeStyle293 cells; also called FcγRIa; not shown: His tag at the C terminus
T4 sequence (P12314 16-292): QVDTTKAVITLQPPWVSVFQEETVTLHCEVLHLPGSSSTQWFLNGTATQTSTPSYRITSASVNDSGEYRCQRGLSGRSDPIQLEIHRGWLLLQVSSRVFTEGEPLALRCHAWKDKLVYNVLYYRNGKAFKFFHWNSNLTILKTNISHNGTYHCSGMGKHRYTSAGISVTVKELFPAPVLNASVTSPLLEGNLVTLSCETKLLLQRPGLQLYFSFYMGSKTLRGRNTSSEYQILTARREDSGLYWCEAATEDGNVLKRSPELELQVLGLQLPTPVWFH
The assay is described as above. The method, then: as §2, §1
The molecule B1 gave a Kd of 2 nM.

Consider B2, for which binding was characterised by a dissociation constant (Kd) of 3.6 nM.

Turning to B3, binding was put at a Kd of 0.31 nM.

In turn, B4 gave a Kd of 1.9 nM.

For the next assay, the target named is T5, Protein A (UniProt P38507 37-327).
T5 construct: bought resin; construct not described; also called rProtein A Sepharose Fast Flow
As to the kind of experiment: rProtein A Sepharose column, stepwise pH elution; fractions analysed by cation exchange chromatography.
In the case of B5, the binding result was “no binding”.

Take B6: the binding result is reported as “no binding”.

Turning to B7, the binding result is listed as “no binding”.

The next assay concerns the target T1, FcgRIIb extracellular domain with …. The experiment in a line: SPR (Biacore); KD of IL6R-B3/IL6R-L for this FcgR divided by KD of the sample. The method, then: as §1
Regarding B1, the “Relative KD” value was 35.7 ratio.

With B2, the “Relative KD” value is 752 ratio.

For B3, the “Relative KD” value amounted to 7.2 ratio.

Regarding B4, the “Relative KD” value came to 657 ratio.

Another assay addresses T2, FcgRIIa type R extracellular domain …. Described as above. The method, then: as §1
Turning to B1, the “Relative KD” value stood at 1.5 ratio.

On to B2, for which the “Relative KD” value turned out to be 7.7 ratio.

In the case of B3, the “Relative KD” value came to 0.9 ratio.

With B4, the “Relative KD” value is 8.3 ratio.

In a further assay the target is T3, FcgRIIa type H extracellular domain …. Described as above. The method, then:
as §1
In the case of B1, the “Relative KD” value amounted to 0 ratio.

Consider B2, for which the “Relative KD” value worked out at 0.2 ratio.

Regarding B3, the “Relative KD” value came out at 0 ratio.

Take B4: the “Relative KD” value was 0.2 ratio.

A further assay deals with T6, FcgRIIIa type V extracellular domain with C-terminal His tag (human, UniProt P08637 17-208).
T6 construct: extracellular domain; also called FcgRIIIaV; FcgRIIIa V; not shown: His tag at the C terminus
T6 sequence (P08637 17-208 F176V): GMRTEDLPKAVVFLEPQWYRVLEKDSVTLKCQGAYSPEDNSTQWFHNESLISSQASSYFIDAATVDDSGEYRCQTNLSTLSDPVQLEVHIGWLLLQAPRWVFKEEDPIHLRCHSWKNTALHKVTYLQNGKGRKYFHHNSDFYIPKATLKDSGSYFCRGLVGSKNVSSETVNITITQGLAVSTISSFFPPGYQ
The experiment in a line: SPR (Biacore), antibody captured on chip, soluble FcgR as analyte; too weak for kinetics, KD from steady-state 1:1 equation. The method, then: (§3) KD can be calculated by substituting the values of Rmax, RI, and C into this equation. The values of RI and C can be determined from the sensorgram of the measurement results and measurement conditions. Rmax was calculated according to the following method.
As to B1, the Kd turned out to be 11000 nM.

The molecule B2 showed a Kd of 17000 nM.

Molecule B3 came in with a dissociation constant Kd of 19000 nM.

Molecule B4 showed a Kd of 14000 nM.

The target in the next assay is T3, FcgRIIa type H extracellular domain …. Described as above. The method, then:
as §3
Turning to B1, the Kd was determined as 21000 nM.

The molecule B3 displayed a Kd of 39000 nM.

The values above are taken from patent publication US20180155451A1 (published 2018).
